From US20210015937A1 (CRESCENDO BIOLOGICS, published 2021) come the findings set out here.

The target of assay [1] is T1, human LAG-3 domains 1-2-Fc (human, UniProt P18627 23-261, limits assumed).
T1 construct: Domains were identified as per Huard et al 1997 PNAS 94:5744-9; also called truncated LAG-3
T1 sequence: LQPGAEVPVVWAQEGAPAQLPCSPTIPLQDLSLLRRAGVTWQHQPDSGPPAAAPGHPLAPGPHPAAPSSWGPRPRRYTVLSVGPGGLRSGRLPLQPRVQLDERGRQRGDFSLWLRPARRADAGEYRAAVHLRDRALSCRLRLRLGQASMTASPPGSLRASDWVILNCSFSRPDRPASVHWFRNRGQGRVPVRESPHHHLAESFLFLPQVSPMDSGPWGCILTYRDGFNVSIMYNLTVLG
Kind of assay: BLI (Octet); human LAG-3 domains 1-2-Fc captured on protein G biosensors, 1:1 fit. As to the method: Binding kinetics for multi-valent and bispecific VH were also measured in real-time bio-layer interferometer based biosensor Octet (ForteBio). […] All the binding studies were performed in HBS-ET Octet kinetics buffer. Biosensors were washed in Octet kinetics buffer in between different steps. […] The contact time for each of the association steps was 150 seconds and the dissociation step was 400 seconds. […] To compare the constructs, kinetic association (kₐ) and dissociation (kd) rate constants were determined by processing and fitting the data to a 1:1 binding model using ForteBio Analysis software.
Background: BLI is a label-free optical method that tracks binding on a fibre tip over time.

Assay [2] addresses T2, human LAG-3 expressed on cells (human, UniProt P18627 23-525).
T2 sequence: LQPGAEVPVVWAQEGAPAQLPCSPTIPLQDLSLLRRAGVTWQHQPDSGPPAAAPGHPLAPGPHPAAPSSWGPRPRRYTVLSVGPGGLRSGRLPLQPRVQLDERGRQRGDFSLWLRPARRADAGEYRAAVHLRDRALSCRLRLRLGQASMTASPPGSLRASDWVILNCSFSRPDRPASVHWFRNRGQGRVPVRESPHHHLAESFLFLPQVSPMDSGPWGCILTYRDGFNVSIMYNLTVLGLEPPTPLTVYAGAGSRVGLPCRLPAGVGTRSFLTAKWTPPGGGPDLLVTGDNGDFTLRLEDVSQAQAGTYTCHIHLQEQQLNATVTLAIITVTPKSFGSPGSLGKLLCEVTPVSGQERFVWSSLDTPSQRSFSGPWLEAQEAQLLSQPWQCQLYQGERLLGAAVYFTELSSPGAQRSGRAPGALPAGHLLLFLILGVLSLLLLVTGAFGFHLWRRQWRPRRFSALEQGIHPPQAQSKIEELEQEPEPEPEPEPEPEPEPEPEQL
Kind of assay: cell-based or functional assay.

Assay [3] addresses T3, recombinant human LAG-3-Fc (human, UniProt P18627 23-450).
T3 construct: also called human LAG-3 (R&D Systems cat no. 2319-L3); LAG3 antigen
T3 sequence: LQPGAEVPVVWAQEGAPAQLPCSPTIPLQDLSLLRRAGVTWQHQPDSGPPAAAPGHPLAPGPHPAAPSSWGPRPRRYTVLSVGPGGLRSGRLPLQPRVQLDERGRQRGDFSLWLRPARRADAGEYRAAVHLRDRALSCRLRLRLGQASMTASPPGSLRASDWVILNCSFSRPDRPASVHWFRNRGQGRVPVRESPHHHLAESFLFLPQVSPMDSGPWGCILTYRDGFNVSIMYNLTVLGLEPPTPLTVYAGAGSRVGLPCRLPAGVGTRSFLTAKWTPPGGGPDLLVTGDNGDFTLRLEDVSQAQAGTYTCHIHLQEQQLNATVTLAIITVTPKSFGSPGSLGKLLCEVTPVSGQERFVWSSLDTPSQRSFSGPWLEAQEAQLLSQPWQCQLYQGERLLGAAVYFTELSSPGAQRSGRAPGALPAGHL
Kind of assay: competition ELISA; LAG-3-Fc pre-incubated with VH, binding to coated Galectin-3. The text has this: The plate was blocked with 3% Marvel skimmed milk powder in PBS. […] Wash steps were done 3 times with PBS 0.05% Tween. Colour was developed using TMB and 0.5M sulphuric acid solution.
Background: In an ELISA, binding on a coated surface is turned into a signal by an enzyme label.

A further assay deals with T4, CD4 (UniProt P01730 26-390).
T4 construct: also called CD4 (R&D Biotechne 514-CD)
Kind of assay: ELISA, coated antigen, anti-HIS HRP detection. As to the method: (§1) To screen specificity by ELISA, antigens were coated at 1-5 ug/ml and blocked with Marvel milk powder. VH were added at 10 μg/ml and incubated for 1 hour. After washing, HRP-conjugated anti-HIS antibody (Miltenyi cat no. 130-092-785) was added. TMB substrate and acidic solution were used to develop colorimetric signal.

In the next assay the target is T5, mouse LAG-3 (mouse, UniProt Q61790 24-442).
T5 construct: The construct is not described; also called mouse LAG-3 (Sino Biological cat no 53069-M02H); Mouse LAG3 (R&D Biotechne cat 3328-L3)
T5 sequence (looked up): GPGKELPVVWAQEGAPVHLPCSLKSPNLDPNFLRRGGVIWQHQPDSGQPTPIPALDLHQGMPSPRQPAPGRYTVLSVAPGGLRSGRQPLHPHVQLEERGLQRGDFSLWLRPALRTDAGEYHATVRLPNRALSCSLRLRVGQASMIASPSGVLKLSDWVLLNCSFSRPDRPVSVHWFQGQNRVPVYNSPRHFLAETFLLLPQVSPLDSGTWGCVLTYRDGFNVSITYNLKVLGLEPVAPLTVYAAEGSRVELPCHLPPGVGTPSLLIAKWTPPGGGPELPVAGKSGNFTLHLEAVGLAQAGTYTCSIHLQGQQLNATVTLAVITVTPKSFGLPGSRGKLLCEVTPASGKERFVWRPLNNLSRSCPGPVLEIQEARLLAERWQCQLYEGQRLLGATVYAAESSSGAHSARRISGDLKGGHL
Put plainly: ELISA, coated antigen, anti-HIS HRP detection. As for the experimental part:
as §1

B1: VH1.1-6GS-VH1.1-His6 (VHH)
chain: EVQLVESGGGVVRPGGSLRLSCSASGFTFDDYGMSWVRQAPGKGLEWVSGIHWNGGNSGYADSVKGRFTISRDNAKNSLYLQMNSLRAEDTALYYCARIPREDCSSASCYTDAIDFWGPGTMVTVSSGGGGSGGGGSGGGGSGGGGSGGGGSGGGGSEVQLVESGGGVVRPGGSLRLSCSASGFTFDDYGMSWVRQAPGKGLEWVSGIHWNGGNSGYADSVKGRFTISRDNAKNSLYLQMNSLRAEDTALYYCARIPREDCSSASCYTDAIDFWGPGTMVTVSSAAAHHHHHH
notes: Tandem fusion of two VH 1.1, bivalent for LAG-3; The entry includes the C-terminal AAA-His6; also called 1.1-6GS-1.1; bivalent 1.1-6GS-1.1
As a reminder, the Kd is the constant that tells how readily two partners part at equilibrium. Lower therefore signals higher affinity. By koff is commonly meant the first-order rate constant of dissociation. For orientation: kon means the second-order rate constant of association. Higher therefore signals fast association. For orientation: IC50 means the concentration that inhibits the measured activity by half. As to B1, in assay [1], the Kd stood at 0.811 nM, the off-rate constant (koff) is 0.000522 s⁻¹ and the kon was 644000 M⁻¹ s⁻¹. Besides, in assay [2], the “EC50 (M), NFAT-Luciferase Reporter Gene assay (LAG-3:MHCII)” value came to 4.1e-09 M. Further, the IC50 in assay [3] was 34 nM. Besides, the binding result with CD4 was “no binding (tested: 10 µg/ml VH)”. Also, in the assay with mouse LAG-3, the binding result is on record as “no binding (tested: 10 µg/ml VH)”.
